The source of these data is patent publication US20250218531A1 (ABSCI, published 2025).

Sequences and labels used below:
B1: Trastuzumab HCDR3 variant ARYGGYYYYMDY (Fab, V domains shown)
VH: EVQLVESGGGLVQPGGSLRLSCAASGFNIKDTYIHWVRQAPGKGLEWVARIYPTNGYTRYADSVKGRFTISADTSKNTAYLQMNSLRAEDTAVYYCARYGGYYYYMDYWGQGTLVTVSS
VL: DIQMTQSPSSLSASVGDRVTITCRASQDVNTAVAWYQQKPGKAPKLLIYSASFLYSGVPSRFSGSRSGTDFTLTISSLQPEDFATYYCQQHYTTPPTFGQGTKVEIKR
B2: Trastuzumab HCDR3 variant ARYGTGNYAMDY (Fab, V domains shown)
VH: EVQLVESGGGLVQPGGSLRLSCAASGFNIKDTYIHWVRQAPGKGLEWVARIYPTNGYTRYADSVKGRFTISADTSKNTAYLQMNSLRAEDTAVYYCARYGTGNYAMDYWGQGTLVTVSS
VL: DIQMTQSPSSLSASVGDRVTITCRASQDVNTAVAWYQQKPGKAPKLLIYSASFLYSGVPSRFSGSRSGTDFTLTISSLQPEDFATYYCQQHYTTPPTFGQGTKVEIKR
B3: Trastuzumab HCDR3 variant ARYGYGYFYMDY (Fab, V domains shown)
VH: EVQLVESGGGLVQPGGSLRLSCAASGFNIKDTYIHWVRQAPGKGLEWVARIYPTNGYTRYADSVKGRFTISADTSKNTAYLQMNSLRAEDTAVYYCARYGYGYFYMDYWGQGTLVTVSS
VL: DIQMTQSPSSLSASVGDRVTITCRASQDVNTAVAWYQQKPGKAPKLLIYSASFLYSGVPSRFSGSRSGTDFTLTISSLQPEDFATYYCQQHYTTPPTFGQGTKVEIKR
B4: Trastuzumab HCDR3 variant ARYGYYGYYMDY (Fab, V domains shown)
VH: EVQLVESGGGLVQPGGSLRLSCAASGFNIKDTYIHWVRQAPGKGLEWVARIYPTNGYTRYADSVKGRFTISADTSKNTAYLQMNSLRAEDTAVYYCARYGYYGYYMDYWGQGTLVTVSS
VL: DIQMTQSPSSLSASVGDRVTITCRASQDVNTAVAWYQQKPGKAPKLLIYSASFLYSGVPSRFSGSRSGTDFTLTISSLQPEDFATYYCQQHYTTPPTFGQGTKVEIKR
B5: Trastuzumab HCDR3 variant ARYGYDGYYFAY (Fab, V domains shown)
VH: EVQLVESGGGLVQPGGSLRLSCAASGFNIKDTYIHWVRQAPGKGLEWVARIYPTNGYTRYADSVKGRFTISADTSKNTAYLQMNSLRAEDTAVYYCARYGYDGYYFAYWGQGTLVTVSS
VL: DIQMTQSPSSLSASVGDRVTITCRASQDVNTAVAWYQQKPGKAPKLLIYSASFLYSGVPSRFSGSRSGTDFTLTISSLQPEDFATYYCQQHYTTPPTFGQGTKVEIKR
B6: Trastuzumab HCDR3 variant ARYGSYNYYFGD (Fab, V domains shown)
VH: EVQLVESGGGLVQPGGSLRLSCAASGFNIKDTYIHWVRQAPGKGLEWVARIYPTNGYTRYADSVKGRFTISADTSKNTAYLQMNSLRAEDTAVYYCARYGSYNYYFGDWGQGTLVTVSS
VL: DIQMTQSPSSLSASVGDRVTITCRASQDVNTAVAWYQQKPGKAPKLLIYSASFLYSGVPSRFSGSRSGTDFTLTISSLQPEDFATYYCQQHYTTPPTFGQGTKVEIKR
B7: Trastuzumab HCDR3 variant ARYGVVRYDFAY (Fab, V domains shown)
VH: EVQLVESGGGLVQPGGSLRLSCAASGFNIKDTYIHWVRQAPGKGLEWVARIYPTNGYTRYADSVKGRFTISADTSKNTAYLQMNSLRAEDTAVYYCARYGVVRYDFAYWGQGTLVTVSS
VL: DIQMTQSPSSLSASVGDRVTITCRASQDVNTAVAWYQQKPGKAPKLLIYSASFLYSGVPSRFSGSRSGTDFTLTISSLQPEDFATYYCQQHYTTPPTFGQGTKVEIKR
B8: Trastuzumab HCDR3 variant ARYGWGYYYFDY (Fab, V domains shown)
VH: EVQLVESGGGLVQPGGSLRLSCAASGFNIKDTYIHWVRQAPGKGLEWVARIYPTNGYTRYADSVKGRFTISADTSKNTAYLQMNSLRAEDTAVYYCARYGWGYYYFDYWGQGTLVTVSS
VL: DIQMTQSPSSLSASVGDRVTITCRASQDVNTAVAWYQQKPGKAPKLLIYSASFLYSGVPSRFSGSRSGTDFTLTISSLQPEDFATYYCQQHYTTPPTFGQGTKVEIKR
B9: Trastuzumab HCDR3 variant ARYGYGYYYMDY (Fab, V domains shown)
VH: EVQLVESGGGLVQPGGSLRLSCAASGFNIKDTYIHWVRQAPGKGLEWVARIYPTNGYTRYADSVKGRFTISADTSKNTAYLQMNSLRAEDTAVYYCARYGYGYYYMDYWGQGTLVTVSS
VL: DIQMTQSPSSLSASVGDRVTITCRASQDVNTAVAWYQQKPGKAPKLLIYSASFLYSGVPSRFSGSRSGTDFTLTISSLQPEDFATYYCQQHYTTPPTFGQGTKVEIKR
B10: Trastuzumab HCDR3 variant ARYGYGYYVMDY (Fab, V domains shown)
VH: EVQLVESGGGLVQPGGSLRLSCAASGFNIKDTYIHWVRQAPGKGLEWVARIYPTNGYTRYADSVKGRFTISADTSKNTAYLQMNSLRAEDTAVYYCARYGYGYYVMDYWGQGTLVTVSS
VL: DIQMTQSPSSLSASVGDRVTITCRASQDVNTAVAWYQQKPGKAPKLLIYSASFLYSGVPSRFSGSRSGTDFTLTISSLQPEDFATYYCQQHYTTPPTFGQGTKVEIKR
B11: Trastuzumab HCDR3 variant ARYGLGYYYMDY (Fab, V domains shown)
VH: EVQLVESGGGLVQPGGSLRLSCAASGFNIKDTYIHWVRQAPGKGLEWVARIYPTNGYTRYADSVKGRFTISADTSKNTAYLQMNSLRAEDTAVYYCARYGLGYYYMDYWGQGTLVTVSS
VL: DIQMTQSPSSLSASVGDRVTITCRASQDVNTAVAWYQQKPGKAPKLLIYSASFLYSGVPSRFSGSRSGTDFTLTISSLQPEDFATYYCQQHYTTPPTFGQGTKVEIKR
B12: Trastuzumab HCDR3 variant ARYGSYFYYMDY (Fab, V domains shown)
VH: EVQLVESGGGLVQPGGSLRLSCAASGFNIKDTYIHWVRQAPGKGLEWVARIYPTNGYTRYADSVKGRFTISADTSKNTAYLQMNSLRAEDTAVYYCARYGSYFYYMDYWGQGTLVTVSS
VL: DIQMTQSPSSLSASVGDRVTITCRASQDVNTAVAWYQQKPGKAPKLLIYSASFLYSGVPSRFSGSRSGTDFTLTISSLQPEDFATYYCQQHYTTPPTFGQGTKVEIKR
B13: Trastuzumab HCDR3 variant ARYPSVVYAFGI (Fab, V domains shown)
VH: EVQLVESGGGLVQPGGSLRLSCAASGFNIKDTYIHWVRQAPGKGLEWVARIYPTNGYTRYADSVKGRFTISADTSKNTAYLQMNSLRAEDTAVYYCARYPSVVYAFGIWGQGTLVTVSS
VL: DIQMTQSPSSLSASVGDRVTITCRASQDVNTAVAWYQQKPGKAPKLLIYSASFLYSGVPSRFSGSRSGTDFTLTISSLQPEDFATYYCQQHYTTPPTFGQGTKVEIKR
B14: Trastuzumab HCDR3 variant ARYGLGYYYFDY (Fab, V domains shown)
VH: EVQLVESGGGLVQPGGSLRLSCAASGFNIKDTYIHWVRQAPGKGLEWVARIYPTNGYTRYADSVKGRFTISADTSKNTAYLQMNSLRAEDTAVYYCARYGLGYYYFDYWGQGTLVTVSS
VL: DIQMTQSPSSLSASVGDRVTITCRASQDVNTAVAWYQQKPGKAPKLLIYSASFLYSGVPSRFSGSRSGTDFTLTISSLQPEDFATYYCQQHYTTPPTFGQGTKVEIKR
B15: Trastuzumab HCDR3 variant ARYGTIYFHFDY (Fab, V domains shown)
VH: EVQLVESGGGLVQPGGSLRLSCAASGFNIKDTYIHWVRQAPGKGLEWVARIYPTNGYTRYADSVKGRFTISADTSKNTAYLQMNSLRAEDTAVYYCARYGTIYFHFDYWGQGTLVTVSS
VL: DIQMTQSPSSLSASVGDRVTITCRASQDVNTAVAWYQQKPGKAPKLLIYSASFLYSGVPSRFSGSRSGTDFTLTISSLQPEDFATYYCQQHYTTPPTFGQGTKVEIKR
B16: Trastuzumab HCDR3 variant ARYGLYYYYFDY (Fab, V domains shown)
VH: EVQLVESGGGLVQPGGSLRLSCAASGFNIKDTYIHWVRQAPGKGLEWVARIYPTNGYTRYADSVKGRFTISADTSKNTAYLQMNSLRAEDTAVYYCARYGLYYYYFDYWGQGTLVTVSS
VL: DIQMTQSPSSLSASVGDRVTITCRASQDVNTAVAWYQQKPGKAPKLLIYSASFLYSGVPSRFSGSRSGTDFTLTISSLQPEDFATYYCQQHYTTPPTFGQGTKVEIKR
B17: Trastuzumab HCDR3 variant ARYGYYSYAMDY (Fab, V domains shown)
VH: EVQLVESGGGLVQPGGSLRLSCAASGFNIKDTYIHWVRQAPGKGLEWVARIYPTNGYTRYADSVKGRFTISADTSKNTAYLQMNSLRAEDTAVYYCARYGYYSYAMDYWGQGTLVTVSS
VL: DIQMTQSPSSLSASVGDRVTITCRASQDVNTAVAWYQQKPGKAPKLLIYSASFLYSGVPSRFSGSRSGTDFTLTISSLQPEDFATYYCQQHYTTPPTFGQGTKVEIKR
B18: Trastuzumab HCDR3 variant ARYGRGYYYFDY (Fab, V domains shown)
VH: EVQLVESGGGLVQPGGSLRLSCAASGFNIKDTYIHWVRQAPGKGLEWVARIYPTNGYTRYADSVKGRFTISADTSKNTAYLQMNSLRAEDTAVYYCARYGRGYYYFDYWGQGTLVTVSS
VL: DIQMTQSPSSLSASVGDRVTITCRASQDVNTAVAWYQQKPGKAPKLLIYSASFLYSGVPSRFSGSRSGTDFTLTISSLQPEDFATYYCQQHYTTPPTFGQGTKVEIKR
B19: Trastuzumab HCDR3 variant ARYPGYYYYFDY (Fab, V domains shown)
VH: EVQLVESGGGLVQPGGSLRLSCAASGFNIKDTYIHWVRQAPGKGLEWVARIYPTNGYTRYADSVKGRFTISADTSKNTAYLQMNSLRAEDTAVYYCARYPGYYYYFDYWGQGTLVTVSS
VL: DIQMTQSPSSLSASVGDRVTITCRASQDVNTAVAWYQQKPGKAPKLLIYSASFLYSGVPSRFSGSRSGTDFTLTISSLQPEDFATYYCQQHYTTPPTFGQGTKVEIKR
B20: Trastuzumab HCDR3 variant ARYGYYLYAMDY (Fab, V domains shown)
VH: EVQLVESGGGLVQPGGSLRLSCAASGFNIKDTYIHWVRQAPGKGLEWVARIYPTNGYTRYADSVKGRFTISADTSKNTAYLQMNSLRAEDTAVYYCARYGYYLYAMDYWGQGTLVTVSS
VL: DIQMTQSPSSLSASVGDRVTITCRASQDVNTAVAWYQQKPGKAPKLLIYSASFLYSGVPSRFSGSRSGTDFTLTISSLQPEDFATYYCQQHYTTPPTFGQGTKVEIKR
B21: Trastuzumab HCDR3 variant ARYPPGYYIMDF (Fab, V domains shown)
VH: EVQLVESGGGLVQPGGSLRLSCAASGFNIKDTYIHWVRQAPGKGLEWVARIYPTNGYTRYADSVKGRFTISADTSKNTAYLQMNSLRAEDTAVYYCARYPPGYYIMDFWGQGTLVTVSS
VL: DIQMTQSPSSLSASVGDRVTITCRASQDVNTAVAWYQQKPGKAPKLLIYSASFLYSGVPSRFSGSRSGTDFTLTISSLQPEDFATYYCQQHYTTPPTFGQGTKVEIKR

In the test the target is T1, HER2 (human epidermal growth factor receptor 2) (human, UniProt P04626 23-629).
T1 construct: also called Antigen: HER2
Put plainly: SPR.
Consider B1, for which binding was put at a Kd of 16.3 nM and the “log(KD (M))” value is -7.79.
The corresponding values for B2 are 26.3 nM and -7.58.
The corresponding values for B3 are 21.9 nM and -7.66.
The corresponding values for B4 are 23.3 nM and -7.63.
As for B5, the affinity, expressed as Kd, was 22.2 nM and the “log(KD (M))” value was -7.65.
In the case of B6, the Kd (commonly the concentration at which binding is half-saturated) was found to be 13.6 nM and the “log(KD (M))” value is -7.87.
The like results for B7 were, in that order, 20.5 nM and -7.69.
The corresponding values for B8 are 14.7 nM and -7.83.
Turning to B9, the Kd was determined as 12.2 nM and the “log(KD (M))” value is -7.91.
Turning to B10, the affinity, expressed as Kd, was 8.65 nM and the “log(KD (M))” value was -8.06.
The like results for B11 were, in that order, 10.5 nM and -7.98.
The corresponding values for B12 are 6.53 nM and -8.19.
The like results for B13 were, in that order, 22.3 nM and -7.65.
With B14, the Kd was determined as 15.7 nM and the “log(KD (M))” value was -7.8.
The corresponding values for B15 are 23.9 nM and -7.62.
Take B16: the Kd amounted to 15.5 nM and the “log(KD (M))” value is -7.81.
On to B17, for which the Kd came to 10.2 nM and the “log(KD (M))” value is -7.99.
The corresponding values for B18 are 26.8 nM and -7.57.
The like results for B19 were, in that order, 17.9 nM and -7.75.
As for B20, the affinity, expressed as Kd, was 10.1 nM and the “log(KD (M))” value was -7.99.
The like results for B21 were, in that order, 23.5 nM and -7.63.
